Test results published in patent CN114106160A.

Molecular target: SARS-CoV-2 S1蛋白 (ACRO Biosystems) (SARS-CoV-2) (UniProt P0DTC2)
Assay: BLI, biotinylated SARS-CoV-2 S1 on SA sensor, antibody as analyte, 1:1 model

**Q.** What does the source list for 人源抗体CR3022 (antibody)?
**A.** Kd: 0.0866 nM; koff: 1.9e-05 s⁻¹; kon: 220000 M⁻¹ s⁻¹
